Experimental data taken from patent US20190241662A1.
Where two headings read alike, the source gives them in different places.

Tests used:
[1] = molecular target: full-length human CTLA4 expressed on cells (human) (UniProt P16410); experiment: flow cytometry, transfected HEK293F cells, 100 nM antibody
[2] = molecular target: human PD1 on HEK293F cells (human) (UniProt Q15116); experiment: as above
[3] = molecular target: human LAG3 on HEK293F cells (human) (UniProt P18627); experiment: as above
Chain of human LAG3 on HEK293F cells (human) (P18627 23-525): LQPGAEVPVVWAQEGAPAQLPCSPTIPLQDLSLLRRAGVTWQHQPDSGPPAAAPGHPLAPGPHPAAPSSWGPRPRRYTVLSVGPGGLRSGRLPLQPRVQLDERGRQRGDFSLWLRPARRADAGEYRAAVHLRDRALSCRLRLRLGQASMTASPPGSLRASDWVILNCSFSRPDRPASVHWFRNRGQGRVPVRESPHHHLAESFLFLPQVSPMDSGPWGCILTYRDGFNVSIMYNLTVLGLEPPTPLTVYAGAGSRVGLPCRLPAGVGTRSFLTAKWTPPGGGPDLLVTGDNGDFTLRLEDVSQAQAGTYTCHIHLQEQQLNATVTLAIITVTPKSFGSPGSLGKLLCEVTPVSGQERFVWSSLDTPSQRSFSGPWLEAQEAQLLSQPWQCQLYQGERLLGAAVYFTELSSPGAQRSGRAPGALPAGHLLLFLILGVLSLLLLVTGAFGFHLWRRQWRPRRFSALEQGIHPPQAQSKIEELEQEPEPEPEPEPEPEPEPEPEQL

[4] = molecular target: full-length mouse CTLA4 expressed on HEK293F cells (mouse) (UniProt P09793); experiment: flow cytometry, transfected HEK293F cells, antibody concentration not printed [Cont.]
Chain of full-length mouse CTLA4 expressed on HEK293F cells (mouse) (P09793 36-223): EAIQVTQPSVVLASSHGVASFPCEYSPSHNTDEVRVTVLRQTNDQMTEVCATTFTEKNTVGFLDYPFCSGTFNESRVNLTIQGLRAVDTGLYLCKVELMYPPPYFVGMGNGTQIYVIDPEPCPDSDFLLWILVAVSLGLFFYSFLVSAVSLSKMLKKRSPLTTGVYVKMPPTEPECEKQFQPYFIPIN

[5] = molecular target: human B7H3 on HEK293F cells (human) (UniProt Q5ZPR3); experiment: flow cytometry, transfected HEK293F cells, 100 nM antibody [Cont.]
Chain of human B7H3 on HEK293F cells (human) (Q5ZPR3 29-534): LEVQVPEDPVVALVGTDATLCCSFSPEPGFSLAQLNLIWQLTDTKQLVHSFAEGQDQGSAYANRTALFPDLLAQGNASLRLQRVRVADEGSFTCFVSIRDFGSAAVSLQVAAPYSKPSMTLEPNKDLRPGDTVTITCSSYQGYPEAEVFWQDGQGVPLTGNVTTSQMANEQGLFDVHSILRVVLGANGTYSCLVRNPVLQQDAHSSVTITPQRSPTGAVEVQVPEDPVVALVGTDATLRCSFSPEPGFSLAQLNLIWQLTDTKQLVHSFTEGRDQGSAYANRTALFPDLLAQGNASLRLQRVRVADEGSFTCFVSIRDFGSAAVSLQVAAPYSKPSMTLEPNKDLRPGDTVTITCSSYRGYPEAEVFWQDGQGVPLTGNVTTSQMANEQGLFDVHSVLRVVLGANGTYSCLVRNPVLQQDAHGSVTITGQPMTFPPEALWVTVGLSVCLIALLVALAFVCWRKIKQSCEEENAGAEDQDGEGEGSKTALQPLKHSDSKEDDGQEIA

[6] = molecular target: human Tim3 on HEK293F cells (human) (UniProt Q8TDQ0); experiment: as above
Chain of human Tim3 on HEK293F cells (human) (Q8TDQ0 22-301): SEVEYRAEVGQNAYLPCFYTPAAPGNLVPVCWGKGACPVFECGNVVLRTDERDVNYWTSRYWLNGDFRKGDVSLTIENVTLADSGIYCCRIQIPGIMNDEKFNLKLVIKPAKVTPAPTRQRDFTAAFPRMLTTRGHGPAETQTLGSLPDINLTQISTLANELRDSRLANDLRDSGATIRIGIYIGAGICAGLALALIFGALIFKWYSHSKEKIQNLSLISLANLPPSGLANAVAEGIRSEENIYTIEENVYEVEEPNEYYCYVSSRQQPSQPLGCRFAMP

[7] = molecular target: CTLA4 on activated monkey T cells; experiment: flow cytometry, activated monkey CD4+ T cells, APC-labelled antibody; lower right quadrant […]
Chain of CTLA4 on activated monkey T cells (chain, as listed by the source limits assumed): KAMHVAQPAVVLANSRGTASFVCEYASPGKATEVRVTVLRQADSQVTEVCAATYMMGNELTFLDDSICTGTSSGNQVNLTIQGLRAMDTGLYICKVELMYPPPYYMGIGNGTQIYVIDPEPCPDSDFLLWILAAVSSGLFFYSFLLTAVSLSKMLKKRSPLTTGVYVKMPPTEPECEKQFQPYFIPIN

[8] = molecular target: full-length human CTLA4 expressed on cells (human) (UniProt P16410); experiment: flow cytometry, activated human CD4+ T cells, APC-labelled antibody; lower right quadrant 0%
[9] = molecular target: full-length human CTLA4 expressed on cells (human) (UniProt P16410); experiment: flow cytometry, transfected HEK293F cells, 100 nM antibody; remark: listed apart in the source
[10] = molecular target: human Tim3 on HEK293F cells (human) (UniProt Q8TDQ0); experiment: as above
[11] = molecular target: human LAG3 on HEK293F cells (human) (UniProt P18627); experiment: as above; remark: listed apart in the source
[12] = molecular target: human PD-L1 on HEK293F cells (human) (UniProt Q9NZQ7); experiment: as above
Chain of human PD-L1 on HEK293F cells (human) (Q9NZQ7 19-290): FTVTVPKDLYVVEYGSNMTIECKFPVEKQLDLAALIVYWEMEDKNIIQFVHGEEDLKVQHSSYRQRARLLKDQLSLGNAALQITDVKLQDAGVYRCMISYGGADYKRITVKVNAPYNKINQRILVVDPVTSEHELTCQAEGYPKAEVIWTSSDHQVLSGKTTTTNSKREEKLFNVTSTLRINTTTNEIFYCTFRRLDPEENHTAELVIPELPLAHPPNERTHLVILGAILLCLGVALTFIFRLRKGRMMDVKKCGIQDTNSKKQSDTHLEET

[13] = molecular target: CTLA4 on activated mouse T cells (mouse) (UniProt P09793); experiment: flow cytometry, activated mouse CD4+ T cells, APC-labelled antibody; lower right quadrant 0.043%
Chain of CTLA4 on activated mouse T cells (mouse) (P09793 36-223 limits assumed): as the sequence (P09793 36-223) above

Chain of full-length human CTLA4 expressed on cells (human) (P16410 36-223): as the sequence (chain, as listed by the source limits assumed) above, with N14S, T18I, M106L counted along it
Chain of human PD1 on HEK293F cells (human) (Q15116 25-288): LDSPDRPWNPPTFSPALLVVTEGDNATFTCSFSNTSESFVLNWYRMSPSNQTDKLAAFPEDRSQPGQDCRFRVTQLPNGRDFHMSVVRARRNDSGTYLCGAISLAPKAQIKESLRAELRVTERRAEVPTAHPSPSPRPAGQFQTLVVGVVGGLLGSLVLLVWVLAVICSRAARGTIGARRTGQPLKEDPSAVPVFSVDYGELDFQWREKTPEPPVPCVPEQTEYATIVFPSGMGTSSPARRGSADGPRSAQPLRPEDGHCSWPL

## isotype control antibody (human IgG1)
[1]
  % of cells in upper right quadrant (Q2): 1.79%
[2]
  % of cells in upper right quadrant (Q2): 0.99%
[3]
  % of cells in upper right quadrant (Q2): 2.1%
[4]
  % of cells in upper right quadrant (Q2): 0.23
  Mean: 3700
[5]
  % of cells in upper right quadrant (Q2): 1.72%
[6]
  % of cells in upper right quadrant (Q2): 1.06%
[7]
  % of cells in upper right quadrant (APC-positive): 6.27%
[8]
  % of cells in upper right quadrant (APC-positive): 0.034%
[9]
  % of cells in upper right quadrant (Q2): 0.45%
  Mean: 48000
[10]
  % of cells in upper right quadrant (Q2): 0.055%
  Mean: 3200
[11]
  % of cells in upper right quadrant (Q2): 0.17%
  Mean: 3550
[12]
  % of cells in upper right quadrant (Q2): 0.27%
  Mean: 36300
[13]
  % of cells in upper right quadrant (APC-positive): 1.98%
